Source: EP4745153A1, “GLP-1, GIP AND GCG RECEPTOR […] USE THEREOF” (Jiangsu Hengrui Pharmaceuticals Co., Ltd., priority 2023, dated 2025)
Starred links: 1 amine or outer side, 2 acyl side, 3 side chain; linkers in the order of their positions; H or OH if unused. Non-standard residues stand in square brackets, D forms with d. Groups on a side chain read outwards from the residue. No end group written: not given here. *: point of attachment. C20 diacid = O=C(O)CCCCCCCCCCCCCCCCCCC(=O)*; γGlu = O=C(O)[C@H](CCC(=O)[*:2])N[*:1]; Ac4c = NC1(C(=O)O)CCC1; AEEA = NCCOCCOCC(=O)O; Ac3c = NC1(C(=O)O)CC1; Aib = CC(C)(N)C(=O)O

B1: Compound No. 0146 (peptide)
peptide: H[Aib]HGTFTSDLSILLEK([AEEA-AEEA-γGlu-C20 diacid])KAA[Ac3c]EFVEWLLA[dE]GPSSGAPPPS-NH2
modifications: N-terminus assumed
SMILES: CC[C@H](C)[C@H](NC(=O)[C@H](CO)NC(=O)[C@H](CC(C)C)NC(=O)[C@H](CC(=O)O)NC(=O)[C@H](CO)NC(=O)[C@@H](NC(=O)[C@H](Cc1ccccc1)NC(=O)[C@@H](NC(=O)CNC(=O)[C@H](Cc1c[nH]cn1)NC(=O)C(C)(C)NC(=O)[C@@H](N)Cc1c[nH]cn1)[C@@H](C)O)[C@@H](C)O)C(=O)N[C@@H](CC(C)C)C(=O)N[C@@H](CC(C)C)C(=O)N[C@@H](CCC(=O)O)C(=O)N[C@@H](CCCCNC(=O)COCCOCCNC(=O)COCCOCCNC(=O)CC[C@H](NC(=O)CCCCCCCCCCCCCCCCCCC(=O)O)C(=O)O)C(=O)N[C@@H](CCCCN)C(=O)N[C@@H](C)C(=O)N[C@@H](C)C(=O)NC1(C(=O)N[C@@H](CCC(=O)O)C(=O)N[C@@H](Cc2ccccc2)C(=O)N[C@H](C(=O)N[C@@H](CCC(=O)O)C(=O)N[C@@H](Cc2c[nH]c3ccccc23)C(=O)N[C@@H](CC(C)C)C(=O)N[C@@H](CC(C)C)C(=O)N[C@@H](C)C(=O)N[C@H](CCC(=O)O)C(=O)NCC(=O)N2CCC[C@H]2C(=O)N[C@@H](CO)C(=O)N[C@@H](CO)C(=O)NCC(=O)N[C@@H](C)C(=O)N2CCC[C@H]2C(=O)N2CCC[C@H]2C(=O)N2CCC[C@H]2C(=O)N[C@@H](CO)C(N)=O)C(C)C)CC1
B2: Compound No. 0147 (peptide)
peptide: H[Aib]HGTFTSDLSILLEK([AEEA-AEEA-γGlu-C20 diacid])KAA[Ac4c]EFVEWLLA[dE]GPSSGAPPPS-NH2
modifications: N-terminus assumed
SMILES: CC[C@H](C)[C@H](NC(=O)[C@H](CO)NC(=O)[C@H](CC(C)C)NC(=O)[C@H](CC(=O)O)NC(=O)[C@H](CO)NC(=O)[C@@H](NC(=O)[C@H](Cc1ccccc1)NC(=O)[C@@H](NC(=O)CNC(=O)[C@H](Cc1c[nH]cn1)NC(=O)C(C)(C)NC(=O)[C@@H](N)Cc1c[nH]cn1)[C@@H](C)O)[C@@H](C)O)C(=O)N[C@@H](CC(C)C)C(=O)N[C@@H](CC(C)C)C(=O)N[C@@H](CCC(=O)O)C(=O)N[C@@H](CCCCNC(=O)COCCOCCNC(=O)COCCOCCNC(=O)CC[C@H](NC(=O)CCCCCCCCCCCCCCCCCCC(=O)O)C(=O)O)C(=O)N[C@@H](CCCCN)C(=O)N[C@@H](C)C(=O)N[C@@H](C)C(=O)NC1(C(=O)N[C@@H](CCC(=O)O)C(=O)N[C@@H](Cc2ccccc2)C(=O)N[C@H](C(=O)N[C@@H](CCC(=O)O)C(=O)N[C@@H](Cc2c[nH]c3ccccc23)C(=O)N[C@@H](CC(C)C)C(=O)N[C@@H](CC(C)C)C(=O)N[C@@H](C)C(=O)N[C@H](CCC(=O)O)C(=O)NCC(=O)N2CCC[C@H]2C(=O)N[C@@H](CO)C(=O)N[C@@H](CO)C(=O)NCC(=O)N[C@@H](C)C(=O)N2CCC[C@H]2C(=O)N2CCC[C@H]2C(=O)N2CCC[C@H]2C(=O)N[C@@H](CO)C(N)=O)C(C)C)CCC1

Experiments:
Experiment in all cases: cell-based or functional assay
[1] = target: human glucagon-like peptide-1 receptor (human, UniProt P43220 24-463)
[2] = target: T1, human glucose-dependent insulinotropic polypeptide receptor (human, UniProt P48546 22-466)
T1 sequence (looked up): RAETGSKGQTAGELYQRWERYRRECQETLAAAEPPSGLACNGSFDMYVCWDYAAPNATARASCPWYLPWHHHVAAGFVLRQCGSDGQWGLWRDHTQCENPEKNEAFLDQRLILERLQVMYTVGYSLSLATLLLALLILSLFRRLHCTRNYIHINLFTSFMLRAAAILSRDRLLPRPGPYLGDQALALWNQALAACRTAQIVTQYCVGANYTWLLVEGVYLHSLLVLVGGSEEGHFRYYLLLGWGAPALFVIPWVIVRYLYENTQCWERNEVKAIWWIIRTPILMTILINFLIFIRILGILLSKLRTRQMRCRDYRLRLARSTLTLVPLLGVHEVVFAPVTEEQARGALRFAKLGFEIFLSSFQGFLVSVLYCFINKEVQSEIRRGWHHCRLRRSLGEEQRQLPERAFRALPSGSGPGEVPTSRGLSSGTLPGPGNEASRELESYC

human glucagon receptor = human glucagon receptor (human, UniProt P47871 26-477)
Chain of human glucagon receptor (P47871 26-477): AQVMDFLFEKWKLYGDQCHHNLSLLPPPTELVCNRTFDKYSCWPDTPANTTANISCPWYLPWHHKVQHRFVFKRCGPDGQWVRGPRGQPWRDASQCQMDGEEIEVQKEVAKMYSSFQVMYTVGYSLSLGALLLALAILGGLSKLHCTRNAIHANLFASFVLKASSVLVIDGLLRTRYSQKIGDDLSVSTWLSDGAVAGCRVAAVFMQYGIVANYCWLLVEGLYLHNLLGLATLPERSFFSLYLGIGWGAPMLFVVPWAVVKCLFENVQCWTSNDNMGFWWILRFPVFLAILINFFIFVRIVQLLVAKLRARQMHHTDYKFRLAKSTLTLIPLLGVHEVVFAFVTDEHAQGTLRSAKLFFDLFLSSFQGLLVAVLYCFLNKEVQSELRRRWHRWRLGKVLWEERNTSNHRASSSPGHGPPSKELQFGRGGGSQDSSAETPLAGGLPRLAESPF

Binder	Activity against human GLP-1R (EC50 nM) [1] [nM]	Activity against human GIPR (EC50 nM) [2] [nM]	Activity against human GCGR (EC50 nM) (human glucagon receptor) [nM]
B1	0.033	0.009	0.146
B2	0.035	0.005	0.041
